Measurements published in patent CN1934266A.

Key:
Experiment in all cases: ELISA, growth factor coated at 10 μg/ml, antibody at 10 μg/ml, mean of duplicates
[1] = target: TGF-a (R&D Systems 239-A) (UniProt P01135)
[2] = target: BMP-5 (R&D Systems 615-BM) (UniProt P22003)
[3] = target: BMP-2 (R&D Systems 355-BEC/CF) (UniProt P12643)
[4] = target: BMP-7 (R&D Systems 354-BP) (UniProt P18075)
[5] = target: TGF-b1 (Peprotech 100-21R) (UniProt P01137)
[6] = target: TGF-b2 (Peprotech 100-35) (UniProt P61812)
Chain of UniProt P61812 (P61812 303-414 limits assumed): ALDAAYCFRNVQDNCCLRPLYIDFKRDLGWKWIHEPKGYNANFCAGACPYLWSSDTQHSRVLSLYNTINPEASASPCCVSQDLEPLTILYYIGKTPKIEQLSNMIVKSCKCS

[7] = target: 重组人GDF-11(Peprotech公司，目录号120-11) (human) (UniProt O95390)
Chain of UniProt O95390 (O95390 299-407 limits assumed): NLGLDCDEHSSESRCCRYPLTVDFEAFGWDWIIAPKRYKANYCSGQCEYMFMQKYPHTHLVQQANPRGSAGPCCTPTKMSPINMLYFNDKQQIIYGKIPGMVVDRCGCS

[8] = target: 激活蛋白B (R&D Systems 659-AB) (UniProt P09529)
Chain of UniProt P09529 (P09529 293-407 limits assumed): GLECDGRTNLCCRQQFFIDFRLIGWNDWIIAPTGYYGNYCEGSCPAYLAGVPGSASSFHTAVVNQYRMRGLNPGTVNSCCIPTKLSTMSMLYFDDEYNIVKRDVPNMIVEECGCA

[9] = target: BMP-6 (R&D Systems 507-BP) (UniProt P22004)
Chain of UniProt P22004 (P22004 382-513 limits assumed): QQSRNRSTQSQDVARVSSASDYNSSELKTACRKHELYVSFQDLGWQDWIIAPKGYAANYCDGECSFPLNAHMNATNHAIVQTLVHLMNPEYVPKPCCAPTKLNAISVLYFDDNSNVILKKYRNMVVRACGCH

[10] = target: 重组小鼠肌肉生长抑素(R&D systems，目录号788-G8/CF) (mouse) (UniProt O08689)
Chain of UniProt O08689 (O08689 268-376): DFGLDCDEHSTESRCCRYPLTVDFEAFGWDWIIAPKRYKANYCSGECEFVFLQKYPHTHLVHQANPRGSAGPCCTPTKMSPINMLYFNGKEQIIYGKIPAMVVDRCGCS

[11] = target: 激活蛋白A (R&D Systems 338-AC) (UniProt P08476)
Chain of UniProt P08476 (P08476 311-426 limits assumed): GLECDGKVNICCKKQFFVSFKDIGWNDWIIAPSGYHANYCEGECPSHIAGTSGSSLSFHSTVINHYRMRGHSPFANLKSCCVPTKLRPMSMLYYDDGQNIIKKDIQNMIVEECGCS

[12] = target: IGF-1 (R&D Systems 291-G1) (UniProt P05019)
Chain of UniProt P05019 (P05019 49-118 limits assumed): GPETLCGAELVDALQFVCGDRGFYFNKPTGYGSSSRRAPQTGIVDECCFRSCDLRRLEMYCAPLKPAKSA

Chain of UniProt P12643 (P12643 283-396 limits assumed): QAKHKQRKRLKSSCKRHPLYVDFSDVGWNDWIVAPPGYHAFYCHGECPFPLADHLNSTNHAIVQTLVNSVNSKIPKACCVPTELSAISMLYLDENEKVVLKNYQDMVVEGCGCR
Chain of UniProt P01135 (P01135 40-89 limits assumed): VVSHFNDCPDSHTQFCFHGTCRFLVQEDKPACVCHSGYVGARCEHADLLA
Chain of UniProt P18075 (P18075 293-431 limits assumed): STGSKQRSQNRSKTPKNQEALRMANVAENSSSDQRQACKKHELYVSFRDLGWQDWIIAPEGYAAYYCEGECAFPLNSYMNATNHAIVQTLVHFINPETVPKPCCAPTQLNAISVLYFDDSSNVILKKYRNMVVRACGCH
Chain of UniProt P22003 (P22003 317-454 limits assumed): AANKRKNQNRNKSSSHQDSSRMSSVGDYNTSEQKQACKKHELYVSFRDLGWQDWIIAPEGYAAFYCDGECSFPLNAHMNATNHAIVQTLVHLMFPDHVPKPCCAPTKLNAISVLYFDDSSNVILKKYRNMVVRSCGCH
Chain of UniProt P01137 (P01137 279-390 limits assumed): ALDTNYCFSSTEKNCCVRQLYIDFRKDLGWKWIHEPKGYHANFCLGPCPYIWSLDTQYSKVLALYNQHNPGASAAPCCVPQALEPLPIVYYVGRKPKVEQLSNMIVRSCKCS

- 平均吸光度 (OD 490 nm) [1]: 0.0445 OD 490 nm
- 平均吸光度 (OD 490 nm) [2]: 0.038 OD 490 nm
- 平均吸光度 (OD 490 nm) [3]: 0.0525 OD 490 nm
- 平均吸光度 (OD 490 nm) [4]: 0.042 OD 490 nm
- 平均吸光度 (OD 490 nm) [5]: 0.0425 OD 490 nm
- 平均吸光度 (OD 490 nm) [6]: 0.0525 OD 490 nm
- 平均吸光度 (OD 490 nm) [7]: 2.62 OD 490 nm
- 平均吸光度 (OD 490 nm) [8]: 0.0485 OD 490 nm
- 平均吸光度 (OD 490 nm) [9]: 0.0745 OD 490 nm
- 平均吸光度 (OD 490 nm) [10]: 2.94 OD 490 nm
- 平均吸光度 (OD 490 nm) [11]: 0.049 OD 490 nm
- 平均吸光度 (OD 490 nm) [12]: 0.045 OD 490 nm
Substance: 多克隆抗肌肉生长抑素抗体(R&D Systems，目录号AF788) (antibody)
